Five molecules from patent US20020128189A1 (Harvard, published 2002) can be followed below.

Ends that are not written are not given here.

To fix the notation:
T1: LexA-E12477-654 (amino acids 477 to 654 of human E12 fused to LexA) (human, UniProt P15923 477-654)
T1 construct: not shown: LexA encoded by the LexA gene of pEG202, N-terminal fusion partner
T1 sequence (looked up): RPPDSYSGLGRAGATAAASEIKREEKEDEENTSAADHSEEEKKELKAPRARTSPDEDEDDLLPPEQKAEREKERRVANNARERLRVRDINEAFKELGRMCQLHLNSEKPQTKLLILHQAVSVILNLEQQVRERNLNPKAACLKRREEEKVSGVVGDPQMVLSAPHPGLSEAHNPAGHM

B1: LexA-E12539-654 (other, human, UniProt P15923 539-654, looked up)
chain: PPEQKAEREKERRVANNARERLRVRDINEAFKELGRMCQLHLNSEKPQTKLLILHQAVSVILNLEQQVRERNLNPKAACLKRREEEKVSGVVGDPQMVLSAPHPGLSEAHNPAGHM
notes: also called LexA-E12 lacking this region; not shown: LexA encoded by the LexA gene of pEG202, N-terminal fusion partner
B2: LexA-E12477-530 (other, human, UniProt P15923 477-530, looked up)
chain: LexA-RPPDSYSGLGRAGATAAASEIKREEKEDEENTSAADHSEEEKKELKAPRARTSP
notes: not shown: LexA encoded by the LexA gene of pEG202, N-terminal fusion partner
B3: LexA-Id3 (all of the Id3 coding sequence) (other, rat, UniProt P41138 1-119, looked up)
chain: MKALSPVRGCYEAVCCLSERSLAIARGRGKSPSAEEPLSLLDDMNHCYSRLRELVPGVPRGTQLSQVEILQRVIDYILDLQVVLAEPAPGPPDGPHLPIQTAELTPELVISKDKRSFCH
notes: Bait for the specificity test; not shown: LexA encoded by the LexA gene of pEG202, N-terminal fusion partner
B4: Full-length human UBCH5 (interactant in the yeast two-hybrid interaction trap) (enzyme, not shown: large carriers)
chain: not shown
B5: LexA-Oct1 (amino acids 294-429 of human Oct 1, containing the POU domain) (other, UniProt P14859 294-429, looked up)
chain: TFKQRRIKLGFTQGDVGLAMGKLYGNDFSQTTISRFEALNLSFKNMCKLKPLLEKWLNDAENLSSDSSLSSPSALNSPGIEGLSRRRKKRTSIETNIRVALEKSFLENQKPTSEEITMIADQLNMEKEVIRVWFCN
notes: range 294-429; Bait for the specificity test; not shown: LexA encoded by the LexA gene of pEG202, N-terminal fusion partner

The target of test [1] is T2, AD-UBCE2A (full-length UBCE2A fused to the B42 transcription activation domain) (rat, UniProt P63279 1-158 (human entry)).
T2 construct: also called AD-UBCE2A library isolate; UBPCE2A
Description: yeast two-hybrid interaction trap.

Test [2] has as its target B4. Briefly: yeast two-hybrid interaction trap.
Test [3] addresses T2, AD-UBCE2A (full-length UBCE2A fused to …). Description: yeast two-hybrid interaction trap, beta-galactosidase. The text has this: In order to assess the specificity of interaction and to map the interaction domains, cells of the yeast strain EGY48/pSH18-34 were transformed with the indicated bait constructs and library/interactant plasmids, and plated on Ura⁻ His⁻ Trp⁻ glucose plates. The bait constructs used in the specificity test were: LexA-Id3, which contains all of the Id3 coding sequence; LexA-c-Myc, which contains the C-terminal 137 amino acids of mouse c-Myc; LexA-Max, which contains all of the rat Max coding sequences; and LexA-Oct1, which includes amino acids 294-429 of human Oct 1 (containing the POU domain). Eight to twelve colonies from each bait/interactant combination were picked and plated in duplicate on Ura⁻ His⁻ Trp⁻ X-gal plates containing either 2% glucose or 2% galactose, 1% raffinose, and the color was assessed after 48 hours.
The specificity of the interaction partners was further examined by transforming yeast harboring expression plasmids encoding LexA fusions with various known HLH proteins. No interaction was detected with the HLH protein, Id3 (Christy et al., 1991, Proc. Natl. Acad. Sci. USA 88:1815-1819), the bHLH-leucine zipper protein, max (Blackwood et al., 1991, Science 251:1211-1217), or the homeodomain protein, Oct 1 (Sturm et al., 1988, Genes & Dev. 2:1582-1599); only weak promoter activity was discerned following introduction of LexA-myc. […]

Test [4] addresses T1, LexA-E12477-654 (amino acids 477 to 654 …). Description: yeast two-hybrid interaction trap.

T2 sequence (P63279 whole entry, the tested form may be a part): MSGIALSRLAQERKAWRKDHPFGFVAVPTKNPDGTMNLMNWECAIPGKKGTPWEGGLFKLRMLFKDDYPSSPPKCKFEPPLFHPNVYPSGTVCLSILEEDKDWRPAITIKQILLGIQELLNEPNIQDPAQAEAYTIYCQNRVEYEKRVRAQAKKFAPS

For the molecule B1, the binding result in test [1] is on record as “no binding”.

With B2, the binding result was “no binding” in test [2] and “binds” in test [1].

For B3, the binding result in test [3] is on record as “no binding”.

As to B4, the binding result in test [4] is “no binding”.

Take B5: the binding result in test [3] was “no binding”.
